Laboratory results from article doi:10.1101/2024.09.13.612963 (bioRxiv, 2024).

Molecular target: T1, TRAK1-mScarlet (wild type, truncated before the mitochondrial binding domain) (human, UniProt Q9UPV9 1-702)
T1 sequence (looked up): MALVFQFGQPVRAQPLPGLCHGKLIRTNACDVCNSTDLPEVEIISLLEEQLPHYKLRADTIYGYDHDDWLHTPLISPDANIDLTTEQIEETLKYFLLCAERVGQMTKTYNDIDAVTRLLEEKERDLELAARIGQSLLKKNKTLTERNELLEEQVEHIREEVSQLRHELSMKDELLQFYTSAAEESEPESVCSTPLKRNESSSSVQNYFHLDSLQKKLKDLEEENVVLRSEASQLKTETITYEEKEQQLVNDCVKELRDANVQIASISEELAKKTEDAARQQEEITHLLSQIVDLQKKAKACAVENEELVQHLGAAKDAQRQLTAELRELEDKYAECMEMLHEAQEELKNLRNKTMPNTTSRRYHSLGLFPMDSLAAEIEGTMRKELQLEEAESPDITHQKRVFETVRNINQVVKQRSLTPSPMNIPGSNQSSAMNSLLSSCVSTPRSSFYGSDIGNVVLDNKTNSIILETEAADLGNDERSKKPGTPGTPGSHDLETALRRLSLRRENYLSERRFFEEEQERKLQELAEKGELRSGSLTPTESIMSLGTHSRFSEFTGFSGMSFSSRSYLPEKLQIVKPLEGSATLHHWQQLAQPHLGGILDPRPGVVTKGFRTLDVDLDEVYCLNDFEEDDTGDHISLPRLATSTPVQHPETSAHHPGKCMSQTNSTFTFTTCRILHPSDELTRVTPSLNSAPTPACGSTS
Experiment: co-IP

B1: kinesin-1 (KIF5B) (natural protein, human (endogenous in hTERT RPE-1), UniProt P33176 1-963, looked up)
chain: MADLAECNIKVMCRFRPLNESEVNRGDKYIAKFQGEDTVVIASKPYAFDRVFQSSTSQEQVYNDCAKKIVKDVLEGYNGTIFAYGQTSSGKTHTMEGKLHDPEGMGIIPRIVQDIFNYIYSMDENLEFHIKVSYFEIYLDKIRDLLDVSKTNLSVHEDKNRVPYVKGCTERFVCSPDEVMDTIDEGKSNRHVAVTNMNEHSSRSHSIFLINVKQENTQTEQKLSGKLYLVDLAGSEKVSKTGAEGAVLDEAKNINKSLSALGNVISALAEGSTYVPYRDSKMTRILQDSLGGNCRTTIVICCSPSSYNESETKSTLLFGQRAKTIKNTVCVNVELTAEQWKKKYEKEKEKNKILRNTIQWLENELNRWRNGETVPIDEQFDKEKANLEAFTVDKDITLTNDKPATAIGVIGNFTDAERRKCEEEIAKLYKQLDDKDEEINQQSQLVEKLKTQMLDQEELLASTRRDQDNMQAELNRLQAENDASKEEVKEVLQALEELAVNYDQKSQEVEDKTKEYELLSDELNQKSATLASIDAELQKLKEMTNHQKKRAAEMMASLLKDLAEIGIAVGNNDVKQPEGTGMIDEEFTVARLYISKMKSEVKTMVKRCKQLESTQTESNKKMEENEKELAACQLRISQHEAKIKSLTEYLQNVEQKKRQLEESVDALSEELVQLRAQEKVHEMEKEHLNKVQTANEVKQAVEQQIQSHRETHQKQISSLRDEVEAKAKLITDLQDQNQKMMLEQERLRVEHEKLKATDQEKSRKLHELTVMQDRREQARQDLKGLEETVAKELQTLHNLRKLFVQDLATRVKKSAEIDSDDTGGSAAQKQKISFLENNLEQLTKVHKQLVRDNADLRCELPKLEKRLRATAERVKALESALKEAKENASRDRKRYQQEVDRIKEAVRSKNMARRGHSAQIAKPIRPGQHPAASPTHPSAIRGGGAFVQNSQPVAVRGGGGKQV
fold enrichment against TRAK2-driven synthetic cargo: ~20 fold
